Results taken from patent publication EP4713368A1 (dated 2026).

Target: T1, human CD28 (human, UniProt P10747 19-152, limits assumed)
T1 construct: also called Cluster of Differentiation 28; Tp44
Assay: selection from yeast-presented synthetic human antibody libraries

| binding result | Binder |
| --- | --- |
| binds | Ab No. 12 (antibody, V domains shown, IgG format) VH: QVQLVQSGAEVKKPGSSVKVSCKASGGTFSSYAISWVRQAPGQGLEWMGGIIPISGTANYAQKFQGRVTITADESTSTAYMELSSLRSEDTAVYYCARGGIALHRSSSGLLWGRGTLVTVSS VL: not shown |
| binds | Ab No. 25 (antibody, V domains shown, IgG format) VH: EVQLVESGGGLVQPGRSLRLSCAASGFTFDDYAMHWVRQAPGKGLEWVSGISWSSGSIGYADSVKGRFTISRDNAKNSLYLQMNSLRAEDTAVYYCAKAWGRVGRANYYYYGLDVWGQGTTVTVSS VL: EIVLTQSPATLSLSPGERATLSCRASQSVSSYLAWYQQKPGQAPRLLIYDASNRATGIPARFSGSGSGTDFTLTISSLEPEDFAVYYCQQYSNFPPITFGGGTKVEIK |
| binds | Ab No. 26 (antibody, V domains shown, IgG format) VH: EVQLVESGGGLVQPGRSLRLSCAASGFTFDDYAMHWVRQAPGKGLEWVSGISWSSGSIGYADSVEGRFTISRDNAKNSLYLQMNSLRAEDTAVYYCAKAWGRVGRANYYYYGLDVWGQGTTVTVSS VL: EIVLTQSPATLSLSPGERATLSCRASQSVSSYLAWYQQKPGQAPRLLIYDASNRATGIPARFSGSGSGTDFTLTISSLEPEDFAVYYCQQYANHLTFGGGTKVEIK |
| binds | Ab No. 27 (antibody, V domains shown, IgG format) VH: EVQLLESGGGLVQPGGSLRLSCAASGFTFSNYAMSWVRQAPGKGLEWVSAISGSGGSTYYADSVKGRFTISRDNSKNTLYLQMDSLRAEDTAVYYCASFGDIAVAGAGFVNWGQGTLVTVSS VL: not shown |
| binds | Ab No. 3 (antibody, V domains shown, IgG format) VH: QVQLVQSGAEVKKPGSSVKVSCKASGGTFSSYAISWVRQAPGQGLEWMGGIIPISGTANYAQKFQGRVTITADESTSTAYMELSSLRSEDTAVYYCAKALAPGIPQWGQGTLVTVSS VL: DIQMTQSPSSLSASVGDRVTITCRASQSISSYLNWYQQKPGKAPKLLIYAASSLQSGVPSRFSGSGSGTDFTLTISSLQPEDFATYYCQQAYDDPTFGGGTKVEIK |
| binds | Ab No. 4 (antibody, V domains shown, IgG format) VH: QVQLVQSGAEVKKPGSSVKVSCKASGGTFSSYAISWVRQAPGQGLEWMGGIIPISGTANYAQKFQGRVTITADESTSTAYMELSSLRSEDTAVYYCAKALAPGIPQWGQGTLVTVSS VL: DIQMTQSPSSLSASVGDRVTITCRASQSISRYLNWYQQKPGKAPKLLIYGASSLQSGVPSRFSGSGSGTDFTLTISSLQPEDFATYYCQQAFSSPITFGGGTKVEIK |
| binds | Ab No. 46 (antibody, V domains shown, IgG format) VH: QVQLVQSGAEVKKPGSSVKVSCKASGGTFSSYAISWVRQAPGQGLEWMGGIIPISGTTNYAQKFQGRVTITADESTSTAYMELSSLRSEDTAVYYCARHSSSWGTAITSDYWGQGTLVTVSS VL: QSVLTQPPSVSGAPGQRVTISCTGSGSNIGAGYDVHWYQQLPGTAPKLLIYGNTNRPSGVPDRFSGSKSGTSASLAITGLQAEDEADYYCQSNDNSLRGILFGGGTKLTVL |
| binds | Ab No. 1 (antibody, V domains shown, IgG format) VH: QVQLVQSGAEVKKPGASVKVSCKASGYTFTSYAMHWVRQAPGQRLEWMGWINAGTGATKYSQKFQGRVTITRDTSASTAYMELSSLRSEDTAVYYCAKDIGSGFYELSLDYWGQGTLVTVSS VL: DIQMTQSPSSVSASVGDRVTITCRASQGISSWLAWYQQKPGKAPKLLIYAASNLQSGVPSRFSGSGSGTDFTLTISSLQPEDFATYYCQQIISLPLTFGGGTKVEIK |
| binds | Ab No. 11 (antibody, V domains shown, IgG format) VH: QVQLVQSGAEVKKPGSSVKVSCKASGGTFSSYAISWVRQAPGQGLEWMGGIIPISGTANYAQKFQGRVTITADESTSTAYMELSSLRSEDTAVYYCARDRGLGFPHLVWGQGTLVTVSS VL: DIQMTQSPSSVSASVGDRVTITCRASQGISSWLAWYQQKPGKAPKLLIYAASSLQSGVPSRFSGSGSGTDFTLTISSLQPEDFATYYCQQGNSLPITFGGGTKVEIK |
| binds | Ab No. 6 (antibody, V domains shown, IgG format) VH: QVQLVQSGAEVKKPGSSVKVSCKASGGTFSSYAISWVRQAPGQGLEWMGGIIPISGTANYAQKFQGRVTITADESTSTAYMELSSLRSEDTAVYYCAKGGFGAPLPTWGQGTLVTVSS VL: DIQMTQSPSSVSASVGDRVTITCRASQGISSWLAWYQQKPGKAPKLLIYAASSLQSGVPSRFSGSGSGTDFTLTISSLQPEDFATYYCQQGISHPFTFGGGTKVEIK |
| binds | Ab No. 13 (antibody, V domains shown, IgG format) VH: QVQLVQSGAEVKKPGSSVKVSCKASGGTFSSYAISWVRQAPGQGLEWMGGIIPISGTANYAQKFQGRVTITADESTSTAYMELSSLRSEDTAVYYCARGGIALSAGPSNIWGQGTLVTVSS VL: not shown |
| binds | Ab No. 15 (antibody, V domains shown, IgG format) VH: QVQLVQSGAEVKKPGSSVKVSCKASGGTFSSYAISWVRQAPGQGLEWMGGIIPISGTANYAQKFQGRVTITADESTSTAYMELSSLRSEDTAVYYCARGSLSLVSYGPAVWGQGTLVTVSS VL: EIVMTQSPATLSVSPGERATLSCRASQSVSSNLAWYQQKPGQAPRLLIYGASTRATGIPARFSGSGSGTEFTLTISSLQSEDFAVYYCQQYITHPPTFGGGTKVEIK |
| binds | Ab No. 28 (antibody, V domains shown, IgG format) VH: EVQLLESGGGLVQPGGSLRLSCAASGFTFSSYAMSWVRQAPGKGLEWVSAISGSGGSTYYADSVKGRFTISRDNSKNTLYLQMNSLRAEDTAVYYCVRGYRLVGILTGSHFDYWGQGTLVTVSS VL: DIQMTQSPSTLSASVGDRVTITCRASQSIGSWLAWYQQKPGKAPKLLIYKASSLESGVPSRFSGSGSGTEFTLTISSLQPDDFATYYCQQYNILPPTFGGGTKVEIK |
| binds | Ab No. 24 (antibody, V domains shown, IgG format) VH: QITLKESGPTLVKPTQTLTLTCTFSGFSLSTSGVGVGWIRQPPGKALEWLALIYWNDDKRYSPSLKSRLTITKDTSKNQVVLTMTNMDPVDTAVYYCARSFDQGIAVWGPFDYWGQGTLVTVSS VL: not shown |
| binds | Ab No. 10 (antibody, V domains shown, IgG format) VH: QVQLVQSGAEVKKPGSSVKVSCKASGGTFSSYAISWVRQAPGQGLEWMGGIIPISGTANYAQKFQGRVTITADESTSTAYMELSSLRSEDTAVYYCARDKGGLGRGGRYWGQGTLVTVSS VL: not shown |
| binds | Ab No. 22 (antibody, V domains shown, IgG format) VH: QVQLVQSGAEVKKPGSSVKVSCKASGGTFSSYAISWVRQAPGQGLEWMGGIIPISGTANYAQKFQGRVTITADESTSTAYMELSSLRSEDTAVYYCVRARGIVGPDEGPWGQGTLVTVSS VL: not shown |
| binds | Ab No. 18 (antibody, V domains shown, IgG format) VH: QVQLVQSGAEVKKPGSSVKVSCKASGGTFSSYAISWVRQAPGQGLEWMGGIIPISGTANYAQKFQGRVTITADESTSTAYMELSSLRSEDTAVYYCARPEKGFTSGLVDWGQGTLVTVSS VL: not shown |
| binds | Ab No. 16 (antibody, V domains shown, IgG format) VH: QVQLVQSGAEVKKPGSSVKVSCKASGGTFSSYAISWVRQAPGQGLEWMGGIIPISGTANYAQKFQGRVTITADESTSTAYMELSSLRSEDTAVYYCARLYHIGTTGYPYWGQGTLVTVSS VL: DIQMTQSPSSLSASVGDRVTITCRASQSISSYLNWYQQKPGKAPKLLIYGASSLQSGVPSRFSGSGSGTDFTLTISSLQPEDFATYYCQQSYYDPTFGGGTKVEIK |
| binds | Ab No. 19 (antibody, V domains shown, IgG format) VH: QVQLVQSGAEVKKPGSSVKVSCKASGGTFSSYAISWVRQAPGQGLEWMGGIIPISGTANYAQKFQGRVTITADESTSTAYMELSSLRSEDTAVYYCARQYGTFAFYSDYWGQGTLVTVSS VL: not shown |
| binds | Ab No. 23 (antibody, V domains shown, IgG format) VH: QVQLVQSGAEVKKPGSSVKVSCKASGGTFSSYAISWVRQAPGQGLEWMGGIIPISGTANYAQKFQGRVTITADESTSTAYMELSSLRSEDTAVYYCVRARGIVGPDEGPWGQGTLVTVSS VL: not shown |
| binds | Ab No. 14 (antibody, V domains shown, IgG format) VH: QVQLVQSGAEVKKPGSSVKVSCKASGGTFSSYAISWVRQAPGQGLEWMGGIIPISGTANYAQKFQGRVTITADESTSTAYMELSSLRSEDTAVYYCARGSLSLAAETPLWGRGTLVTVSS VL: EIVLTQSPATLSLSPGERATLSCRASQSVSSYLAWYQQKPGQAPRLLIYDASKRATGIPARFSGSGSGTDFTLTISSLEPEDFAVYYCQQYLNFPITFGGGTKVEIK |
| binds | Ab No. 17 (antibody, V domains shown, IgG format) VH: QVQLVQSGAEVKKPGSSVKVSCKASGGTFSSYAISWVRQAPGQGLEWMGGVIPISGTANYAQKFQGRVTITADESTSTAYMELSSLRSEDTAVYYCARLYHLALAPAWGQGTLVTVSS VL: EIVMTQSPATLSLSPGERATLSCRASQSVSSYLAWYQQKPGQAPRLLIYDASNRATGIPARFSGSGSGTDFTLTISSLEPEDFAVYYCQQAVNLPITFGGGTKVEIK |
| binds | Ab No. 21 (antibody, V domains shown, IgG format) VH: QVQLVQSGAEVKKPGSSVKVSCKASGGTFSSYAISWVRQAPGQGLEWMGGIIPISGTANYAQKFQGRVTITADESTSTAYMELSSLRSEDTAVYYCTRDLGFGAIRDTWGQGTLVTVSS VL: EIVLTQSPATLSLSPGERATLSCRASQSVSSYLAWFQQKPGQAPRLLIYDASNRATGIPARFSGSGSGTDFTLTISSLEPEDFAVYYCQQSLNLPITFGGGTKVEIK |
| binds | Ab No. 2 (antibody, V domains shown, IgG format) VH: QVQLVQSGAEVKKPGASVKVSCKASGYTFTSYAMHWVRQAPGQRLEWMGWINAGTGATKYSQKFQGRVTITRDTSASTAYMELSSLRSEDTAVYYCARDLVHSYGLLPGWGQGTLVTVSS VL: EIVLTQSPATLSLSPGERATLSCRASQSVSSYLAWYQQKPGQAPRLLIYDASNRATGIPARFSGSGSGTDFTLTISSLEPEDFAVYYCQQYSNWPFTFGGGTKVEIK |
| binds | Ab No. 20 (antibody, V domains shown, IgG format) VH: QVQLVQSGAEVKKPGSSVKVSCKASGGTFSSYAISWVRQAPGQGLEWMGGIIPISGTANYAQKFQGRVTITADESTSTAYMELSSLRSEDTAVYYCTRDLGFGAIRDTWGQGTLVTVSS VL: EIVLTQSPATLSLSPGERATLSCRASQSVSSYLAWYQQKPGQAPRLLIYDASNRATGIPARFSGSGSGTDFTLTISSLEPEDFAVYYCQQSNNLPITFGGGTKVEIK |
